System: β-galactosidase
Assay: β-galactosidase activity assay with ONPG substrate
Type: biochemical
Settings: after dithioerythritol treatment and Biogel A5M chromatography
Procedure: C. To 1.8 ml of a 35.3 mg/ml solution of the antiHIgG was added 60 μl (10 mg/ml DMF) of m-maleimidobenzoic acid NHS ester and the mixture allowed to stand at room temperature for 30 min, followed by the addition of 0.18 ml of 1 M sodium acetate, pH 5. The reaction mixture was then dialyzed 2×500 ml (degassed) 20 mM sodium acetate, pH 5, 0.15 M NaCl for 1 hr at room temperature. To a solution of 5 ml of β-galactosidase (1.47 mg/ml) was added 0.2 ml of 0.5 M phosphate, pH 7, followed by 2 ml of the above reaction product at a concentration of 31.1 mg/ml and the mixture incubated at room temperature for 4 hrs. The reaction was terminated by the addition of 0.2 ml of 10 mM cysteine-HCl and incubating for 0.5 hr to yield a final volume of 7.4 ml. […] Fractions 24 to 33 were collected to provide a volume of 50 ml with an optical density at 280 nm of 0.540 and a molar ratio of antibody to enzyme of about 5:1. […] Assaying for the enzyme employed a 10 μl fraction dissolved in 0.5 ml PBS, N3, Mg, RSA combined with 0.1 ml 20 mM ONPG in 0.4 ml buffer and measuring the rate at 37° at 420 nm for the interval between 10 to 20 secs after addition of the substrate.
D. The above procedure was repeated as follows. […] The assays were performed at 37° C., reading at 420 nm employing an assay solution of 10 μl of the conjugate, 0.9 ml PBS, N3, Mg, RSA and 0.1 ml of substrate (20 mM ONPG).

## β-galactosidase: β-galactosidase (Boehringer 150797), treated with dithioerythritol and chromatographed on Biogel A5M
  enzyme activity: 477 u/mg of protein
